PMC2114693

Biological target: human erythrocyte adducin (human) (UniProt P35611)
Assay: co-sedimentation

Chain of human erythrocyte adducin (human) (P35611 whole entry, chain 1 of 2): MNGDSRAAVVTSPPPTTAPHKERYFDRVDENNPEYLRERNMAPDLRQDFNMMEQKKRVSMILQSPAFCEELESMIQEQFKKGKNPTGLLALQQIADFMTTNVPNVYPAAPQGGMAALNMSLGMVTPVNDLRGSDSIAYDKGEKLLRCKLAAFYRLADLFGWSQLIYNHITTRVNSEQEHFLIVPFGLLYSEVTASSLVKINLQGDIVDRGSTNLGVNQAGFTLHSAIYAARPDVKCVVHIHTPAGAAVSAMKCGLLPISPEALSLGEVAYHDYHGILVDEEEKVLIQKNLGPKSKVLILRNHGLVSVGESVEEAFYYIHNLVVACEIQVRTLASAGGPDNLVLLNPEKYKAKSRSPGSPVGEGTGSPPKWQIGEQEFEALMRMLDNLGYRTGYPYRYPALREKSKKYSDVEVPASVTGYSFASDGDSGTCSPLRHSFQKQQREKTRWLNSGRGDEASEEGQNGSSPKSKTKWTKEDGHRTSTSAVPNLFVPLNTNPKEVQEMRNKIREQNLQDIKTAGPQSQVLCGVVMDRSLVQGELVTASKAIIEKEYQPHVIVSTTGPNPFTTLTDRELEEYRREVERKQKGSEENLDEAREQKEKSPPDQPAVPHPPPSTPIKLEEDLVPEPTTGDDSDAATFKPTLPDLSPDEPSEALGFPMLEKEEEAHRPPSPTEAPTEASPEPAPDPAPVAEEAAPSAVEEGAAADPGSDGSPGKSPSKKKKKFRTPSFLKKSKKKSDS
Chain of human erythrocyte adducin (human) (P35612 whole entry, chain 2 of 2, further chain): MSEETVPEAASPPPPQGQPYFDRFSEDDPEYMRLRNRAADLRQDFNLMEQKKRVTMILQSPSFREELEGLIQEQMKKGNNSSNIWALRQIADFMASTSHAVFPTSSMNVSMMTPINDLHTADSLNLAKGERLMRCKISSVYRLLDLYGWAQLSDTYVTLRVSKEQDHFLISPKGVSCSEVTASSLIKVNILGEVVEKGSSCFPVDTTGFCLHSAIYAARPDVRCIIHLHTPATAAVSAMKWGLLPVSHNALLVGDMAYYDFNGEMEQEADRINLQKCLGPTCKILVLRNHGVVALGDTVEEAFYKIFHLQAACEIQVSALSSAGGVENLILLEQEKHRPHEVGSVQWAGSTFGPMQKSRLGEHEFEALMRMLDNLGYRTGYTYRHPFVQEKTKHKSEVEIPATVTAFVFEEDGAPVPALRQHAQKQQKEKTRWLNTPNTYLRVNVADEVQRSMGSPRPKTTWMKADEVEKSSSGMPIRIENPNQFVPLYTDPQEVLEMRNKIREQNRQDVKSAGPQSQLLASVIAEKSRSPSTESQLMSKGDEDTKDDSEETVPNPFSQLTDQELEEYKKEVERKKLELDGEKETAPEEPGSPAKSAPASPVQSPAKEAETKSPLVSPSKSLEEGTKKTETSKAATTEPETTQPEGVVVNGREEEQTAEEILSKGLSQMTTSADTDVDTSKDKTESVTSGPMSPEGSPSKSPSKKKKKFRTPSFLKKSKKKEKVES

Substance “bovine brain calmodulin (from UniProt P62157 1-149) (natural protein)” has an IC50 of 4 µM.
